Assay results as given in article PMC9482650, “Quantitative fragmentomics allow affinity mapping of interactomes” (Nature Communications, 2022).

Tests used:
Assay in all cases: holdup assay
Parameters in all cases: key: below the threshold = too weak to quantify, mostly under pKd 3.1 to 4
[1] = target: PDZRN4_1, Q6ZMN7
[2] = target: PICK1, Q9NRD5
[3] = target: Inadl_8, Q8NI35
[4] = target: MAGI2_2, Q86UL8
[5] = target: NHERF2_2, Q15599
[6] = target: T1, APBA1_1, Q02410
T1 sequence (Q02410 651-752, limits assumed, looked up): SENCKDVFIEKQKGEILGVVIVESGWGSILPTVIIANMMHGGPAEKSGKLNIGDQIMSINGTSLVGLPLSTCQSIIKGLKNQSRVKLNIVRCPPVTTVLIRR

[7] = target: GOPC, Q9HD26; conditions: plain residues with an end cap or a label only (N-terminal biotin on a linker: ado-ado)
[8] = target: T2, PCLO, Q9Y6V0
T2 sequence (Q9Y6V0 4491-4600, limits assumed, looked up): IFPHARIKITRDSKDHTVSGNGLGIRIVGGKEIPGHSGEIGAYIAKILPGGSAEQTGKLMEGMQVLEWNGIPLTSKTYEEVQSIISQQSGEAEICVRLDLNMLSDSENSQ

[9] = target: Inadl_9, Q8NI35
Sequence of Inadl_9, Q8NI35 (Q8NI35 1530-1615): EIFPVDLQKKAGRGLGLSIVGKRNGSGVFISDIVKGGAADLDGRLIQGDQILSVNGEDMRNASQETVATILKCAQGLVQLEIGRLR

[10] = target: T3, HTRA4, P83105
T3 sequence (P83105 378-476, limits assumed, looked up): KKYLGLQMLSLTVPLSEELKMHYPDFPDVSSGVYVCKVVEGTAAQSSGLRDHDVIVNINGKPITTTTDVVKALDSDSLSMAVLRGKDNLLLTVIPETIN

[11] = target: T4, PARD3B_1, Q8TEW8
T4 sequence (Q8TEW8 196-299, limits assumed, looked up): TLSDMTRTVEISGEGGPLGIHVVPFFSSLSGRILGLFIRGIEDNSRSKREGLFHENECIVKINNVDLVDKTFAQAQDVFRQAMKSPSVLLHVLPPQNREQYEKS

[12] = target: PARD3_3, Q8TEW0
Sequence of PARD3_3, Q8TEW0 (Q8TEW0 582-685): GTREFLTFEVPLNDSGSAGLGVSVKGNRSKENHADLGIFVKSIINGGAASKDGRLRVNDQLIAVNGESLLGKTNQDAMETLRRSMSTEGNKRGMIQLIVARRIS

[13] = target: T5, APBA1_2, Q02410
T5 sequence (Q02410 742-832, limits assumed, looked up): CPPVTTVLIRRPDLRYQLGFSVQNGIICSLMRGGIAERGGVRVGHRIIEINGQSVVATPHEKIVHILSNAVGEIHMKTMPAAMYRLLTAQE

[14] = target: DLG5_1, Q8TDM6
Sequence of DLG5_1, Q8TDM6 (Q8TDM6 617-713): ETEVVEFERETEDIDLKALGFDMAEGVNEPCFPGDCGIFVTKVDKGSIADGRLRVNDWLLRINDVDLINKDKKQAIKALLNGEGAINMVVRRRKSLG

[15] = target: T6, GRIP1_3, Q9Y3R0
T6 sequence (Q9Y3R0 247-346, limits assumed, looked up): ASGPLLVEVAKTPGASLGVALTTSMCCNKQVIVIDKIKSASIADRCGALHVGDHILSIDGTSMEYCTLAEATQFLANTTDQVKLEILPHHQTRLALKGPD

[16] = target: T7, LIN7A, O14910
T7 sequence (O14910 103-200, limits assumed, looked up): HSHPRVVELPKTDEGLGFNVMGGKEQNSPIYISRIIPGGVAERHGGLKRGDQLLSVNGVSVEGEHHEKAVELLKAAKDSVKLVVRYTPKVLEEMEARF

[17] = target: FRMPD2_2, Q68DX3
Sequence of FRMPD2_2, Q68DX3 (Q68DX3 944-1038): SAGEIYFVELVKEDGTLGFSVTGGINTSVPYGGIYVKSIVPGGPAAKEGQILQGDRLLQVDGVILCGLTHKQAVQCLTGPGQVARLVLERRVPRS

[18] = target: Inadl_2, Q8NI35
Sequence of Inadl_2, Q8NI35 (Q8NI35 238-335): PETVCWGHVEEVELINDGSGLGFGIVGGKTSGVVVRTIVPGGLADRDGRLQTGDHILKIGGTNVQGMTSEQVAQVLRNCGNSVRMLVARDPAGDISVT

[19] = target: GRIP2_3, Q9C0E4
Sequence of GRIP2_3, Q9C0E4 (Q9C0E4 238-339): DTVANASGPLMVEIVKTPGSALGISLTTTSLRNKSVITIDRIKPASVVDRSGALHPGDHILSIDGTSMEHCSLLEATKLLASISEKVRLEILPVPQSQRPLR

[20] = target: T8, GRIP1_4, Q9Y3R0
T8 sequence (Q9Y3R0 467-571, limits assumed, looked up): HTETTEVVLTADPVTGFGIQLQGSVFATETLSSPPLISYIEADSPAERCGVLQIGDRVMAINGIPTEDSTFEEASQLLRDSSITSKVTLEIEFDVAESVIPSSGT

[21] = target: T9, GRIP1_2, Q9Y3R0
T9 sequence (Q9Y3R0 145-248, limits assumed, looked up): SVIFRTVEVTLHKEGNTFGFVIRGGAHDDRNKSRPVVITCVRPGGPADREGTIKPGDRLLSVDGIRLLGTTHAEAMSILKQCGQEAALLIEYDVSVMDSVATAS

[22] = target: ARHGEF12, Q9NZN5-2
Sequence of ARHGEF12, Q9NZN5-2 (Q9NZN5 other isoform, or with tags, fused parts or gaps): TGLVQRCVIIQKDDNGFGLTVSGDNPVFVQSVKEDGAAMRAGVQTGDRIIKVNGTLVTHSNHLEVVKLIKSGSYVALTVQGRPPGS

[23] = target: DLG2_2, Q15700
Sequence of DLG2_2, Q15700 (Q15700 189-283): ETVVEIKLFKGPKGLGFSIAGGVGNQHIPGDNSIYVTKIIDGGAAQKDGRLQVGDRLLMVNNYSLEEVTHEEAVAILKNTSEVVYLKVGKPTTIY

[24] = target: T10, TIAM2, Q8IVF5
T10 sequence (Q8IVF5 885-986, limits assumed, looked up): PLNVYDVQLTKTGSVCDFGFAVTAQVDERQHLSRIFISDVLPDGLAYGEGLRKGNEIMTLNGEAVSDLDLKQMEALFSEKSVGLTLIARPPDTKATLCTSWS

[25] = target: NOS1, P29475
Sequence of NOS1, P29475 (P29475 9-101): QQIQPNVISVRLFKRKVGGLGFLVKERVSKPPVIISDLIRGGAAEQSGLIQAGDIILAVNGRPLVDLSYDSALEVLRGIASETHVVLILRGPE

[26] = target: T11, LRRC7, Q96NW7
T11 sequence (Q96NW7 1440-1537, limits assumed, looked up): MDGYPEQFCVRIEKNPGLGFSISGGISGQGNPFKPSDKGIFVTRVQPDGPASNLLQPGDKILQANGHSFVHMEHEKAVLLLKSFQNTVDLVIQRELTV

[27] = plain residues with an end cap or a label only (N-terminal biotin on a linker: ado-ado)
[28] = modified: phospho on T at position -2 from the C-terminal residue

Sequence of PICK1, Q9NRD5 (Q9NRD5 17-115): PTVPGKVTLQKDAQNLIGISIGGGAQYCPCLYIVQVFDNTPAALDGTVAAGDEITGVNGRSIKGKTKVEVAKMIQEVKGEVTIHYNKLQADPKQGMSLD
Sequence of MAGI2_2, Q86UL8 (Q86UL8 410-522): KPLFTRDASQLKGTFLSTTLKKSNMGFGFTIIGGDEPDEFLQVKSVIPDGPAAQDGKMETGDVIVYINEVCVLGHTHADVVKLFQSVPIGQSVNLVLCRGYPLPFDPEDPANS
Sequence of PDZRN4_1, Q6ZMN7 (Q6ZMN7 213-318): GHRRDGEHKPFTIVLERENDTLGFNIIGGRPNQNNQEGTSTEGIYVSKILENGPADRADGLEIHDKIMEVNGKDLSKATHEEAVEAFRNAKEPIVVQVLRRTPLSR
Sequence of Inadl_8, Q8NI35 (Q8NI35 1425-1530): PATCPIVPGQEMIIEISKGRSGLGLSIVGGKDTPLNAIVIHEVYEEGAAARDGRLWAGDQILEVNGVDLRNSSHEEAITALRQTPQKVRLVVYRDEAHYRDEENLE
Sequence of NHERF2_2, Q15599 (Q15599 142-238): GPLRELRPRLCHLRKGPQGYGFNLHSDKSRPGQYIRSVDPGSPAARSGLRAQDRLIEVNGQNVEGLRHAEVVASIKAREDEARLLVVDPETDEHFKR

Q: For DTKNYKQTSV [CRIPT, Q9P021], which pKd [1, 27] is on record?
A: 4.12

Q: What about the pKd [2, 27] of the same binder?
A: 4.15

Q: And the pKd [3, 27]?
A: 4.66

Q: What about the pKd [4, 27] of the same binder?
A: 4.55

Q: And the pKd [5, 27]?
A: 3.73

Q: And the pKd [6, 27]?
A: below the threshold

Q: What about the pKd [7] of the same binder?
A: 3.87

Q: What about the pKd [8, 27] of the same binder?
A: below the threshold

Q: What about the pKd [9, 27] of the same binder?
A: below the threshold

Q: And the pKd [10, 27]?
A: 3.95

Q: What about the pKd [11, 27] of the same binder?
A: 3.48

Q: What about the pKd [12, 27] of the same binder?
A: below the threshold

Q: And the pKd [13, 27]?
A: 3.73

Q: What about the pKd [14, 27] of the same binder?
A: below the threshold

Q: What about the pKd [15, 27] of the same binder?
A: below the threshold

Q: What about the pKd [16, 27] of the same binder?
A: 3.56

Q: And the pKd [17, 27]?
A: below the threshold

Q: And the pKd [18, 27]?
A: below the threshold

Q: What about the pKd [19, 27] of the same binder?
A: below the threshold

Q: What about the pKd [20, 27] of the same binder?
A: below the threshold

Q: And the pKd [21, 27]?
A: below the threshold

Q: And the pKd [22, 27]?
A: 4.36

Q: What about the pKd [23, 27] of the same binder?
A: 4.71

Q: And the pKd [24, 27]?
A: below the threshold

Q: What about the pKd [25, 27] of the same binder?
A: 3.63

Q: And the pKd [26, 27]?
A: 3.92

Q: Which results are given for SSRTRRETQL [HPV16-E6_-2P, P03126]?
A: pKd [1, 28]: below the threshold; pKd [2, 28]: below the threshold; pKd [3, 28]: below the threshold; pKd [4, 28]: below the threshold; pKd [5, 28]: below the threshold; pKd [6, 28]: below the threshold; pKd [8, 28]: below the threshold; pKd [9, 28]: below the threshold; pKd [10, 28]: below the threshold; pKd [11, 28]: below the threshold; pKd [12, 28]: below the threshold; pKd [13, 28]: below the threshold; pKd [14, 28]: below the threshold; pKd [15, 28]: below the threshold; pKd [16, 28]: below the threshold; pKd [17, 28]: below the threshold; pKd [18, 28]: below the threshold; pKd [19, 28]: below the threshold; pKd [20, 28]: below the threshold; pKd [21, 28]: below the threshold; pKd [22, 28]: below the threshold; pKd [23, 28]: below the threshold; pKd [24, 28]: below the threshold; pKd [25, 28]: 3.63; pKd [26, 28]: below the threshold

Q: Which pKd [1, 27] does the source give for KSRVAFFEEL [NF2, P35240;P35240-1] here?
A: below the threshold

Q: What about the pKd [2, 27] of the same binder?
A: below the threshold

Q: And the pKd [3, 27]?
A: below the threshold

Q: What about the pKd [4, 27] of the same binder?
A: below the threshold

Q: What about the pKd [6, 27] of the same binder?
A: below the threshold

Q: What about the pKd [8, 27] of the same binder?
A: below the threshold

Q: What about the pKd [9, 27] of the same binder?
A: below the threshold

Q: And the pKd [10, 27]?
A: 4.4

Q: And the pKd [14, 27]?
A: below the threshold

Q: What about the pKd [15, 27] of the same binder?
A: below the threshold

Q: And the pKd [17, 27]?
A: below the threshold

Q: What about the pKd [18, 27] of the same binder?
A: below the threshold

Q: What about the pKd [19, 27] of the same binder?
A: below the threshold

Q: And the pKd [20, 27]?
A: below the threshold

Q: And the pKd [21, 27]?
A: below the threshold

Q: And the pKd [22, 27]?
A: 3.91

Q: And the pKd [24, 27]?
A: below the threshold
